Results taken from patent US20190276499A1, “Protein VII Fragments and Methods of Use Thereof for the Treatment of Inflammatory Disorders” (priority 2016, published 2019).

Columns and labels:
LPS induced lung injury = experiment: Murine model of LPS induced lung injury, BAL fluid analysis; assay type: in vivo, mouse; settings: 24 hours after LPS exposure, versus mice expressing GFP
Experimental: All mice were housed in SPF conditions. All studies in mice were carried out in accordance with the recommendations in the Guide for the Care and Use of Laboratory Animals of the National Institutes of Health. C57BL/6J male mice aged 8-10 weeks were used for experiments. Mice were sedated with ketamine and xylazine. Once sedated, mice underwent orotrachial intubation, as described (Das et al. (2013) J. Vis. Exp., (73):e50318), with a 20G angiocatheter from BD (Franklin Lakes, N.J.). Mice subsequently received 5e10 GC of recombinant adenovirus expressing VII-GFP or GFP purified as described above. Four days after infection, mice were exposed to aerosolized LPS, 3 mg/mL for 30 minutes as described (Jeyaseelan et al. (2004) Infect. Immun., 72:7247-7256). One day after LPS exposure, BAL, and lung tissue were harvested as detailed (Nick et al. (2000) J. Immunol., 164:2151-2159) and examined for HMGB1 content (ELISA, Chondrex 6010) and neutrophil count (hematoxylin and eosin stain kit EMD 65044/93). Immunostaining was carried out using standard methods. A minimum of four biological replicates were used for each condition studied. Mice were assigned a random number and color at the start of the experiment and were randomized. Technicians carrying out the experiments were blinded to the identity of the samples. Tissue samples were assigned a random study number such that the technician performing the analysis was blinded. Unblinding for the purpose of data analysis occurred only after all data had been collected.

HMGB1 = target: T1, HMGB1 (Homo sapiens, UniProt P09429); experiment: Precision cut lung slice (PCLS) immunofluorescence; assay type: cell-based; set-up: tissue National Disease Research Interchange (NDRI); host or cells: human precision cut lung slices; settings: PCLS from human donors
T1 sequence (P09429 1-215): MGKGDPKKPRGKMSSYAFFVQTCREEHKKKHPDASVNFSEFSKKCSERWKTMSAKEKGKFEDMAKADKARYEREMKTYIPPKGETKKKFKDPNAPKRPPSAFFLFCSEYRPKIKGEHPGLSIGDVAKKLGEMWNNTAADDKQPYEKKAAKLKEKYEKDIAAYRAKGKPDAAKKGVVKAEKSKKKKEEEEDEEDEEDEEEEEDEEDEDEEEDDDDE
Experimental: PCLS were obtained and prepared as described (Cooper et al. (2008) J. Allergy Clin. Immunol., 122:734-740; Koziol-White et al. (2011) Expert Rev. Respir. Med., 5:767-777). De-identified human lung tissue from donors was obtained from the National Disease Research Interchange (NDRI), Philadelphia, Pa. Samples were infected with 10^8 pfu of Ad5 per slice or 10^9 GC of rAd VII-GFP for 24 hours. Samples were fixed in 4% PFA at room temperature for 15 minutes and washed three times in PBS. Samples were permiabilized with 0.5% Triton X and washed twice more in PBS. Samples were then incubated with 3% BSA and 0.03% Triton X in PBS for 1 hour to block. Primary antibodies (DBP or HMGB1) were incubated in the same buffer for 1 hour and then samples were washed three times in PBS with 3% BSA, incubated with secondary antibodies and DAPI for 1 hour, and washed three more times. Whole slices were mounted on slides with mounting solution and imaged by confocal microscopy.

HMGB2 = target: T2, HMGB2 (Homo sapiens, UniProt P26583); experiment: Salt fractionation of nuclei, western blot for HMGB2; assay type: cell-based; settings: upon protein VII expression
T2 construct: endogenous in cells; host or cells: THP-1 (PMA-differentiated)
T2 sequence (P26583 1-209): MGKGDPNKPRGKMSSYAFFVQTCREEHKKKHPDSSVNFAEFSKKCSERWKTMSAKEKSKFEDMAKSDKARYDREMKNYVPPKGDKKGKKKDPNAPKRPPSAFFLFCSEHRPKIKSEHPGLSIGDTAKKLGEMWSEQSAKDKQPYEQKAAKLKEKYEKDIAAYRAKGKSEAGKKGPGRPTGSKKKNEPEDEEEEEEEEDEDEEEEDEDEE
Experimental: Salt fractionation of nuclei was adapted from established protocols (Zaret, K. (2005) Micrococcal nuclease analysis of chromatin structure. Curr. Protoc. Mol., Biol. Chapter 21, Unit 21.1; Teves et al. (2012) Methods Mol. Biol., 833:421-432). Briefly, 2-4×10^7 cells were collected and resuspended in 2 mL of ice-cold buffer I (0.32 M sucrose, 60 mM KCl, 15 mM NaCl, 5 mM MgCl2, 0.1 mM EGTA, 15 mM Tris, pH 7.5, 0.5 mM DTT, 0.1 mM PMSF and protease inhibitor cocktail from Roche). To dissolve the plasma membrane, 2 mL ice-cold buffer I supplemented with 0.1% IGEPAL were added and samples were incubated on ice for 10 minutes. The 4 mL of nuclei was layered on 8 mL of ice-cold buffer II (1.2 M sucrose, 60 mM KCl, 15 mM NaCl, 5 mM MgCl2, 0.1 mM EGTA, 15 mM Tris, pH 7.5, 0.5 mM DTT, 0.1 mM PMSF and protease inhibitor cocktail from Roche) and centrifuged for 20 minutes at 10,000×g and 4° C. The pelleted nuclei were resuspended in 400 μL buffer III (10 mM Tris pH 7.4, 2 mM MgCl2, 0.1 mM PMSF) supplemented with 5 mM CaCl2 and the DNA was digested to mononucleosomes by addition of 1 unit of MNase (Sigma-Aldrich, N3755). […] The final pellet was resuspended in 400 μL ddH2O and all samples were analyzed together by western blot. An aliquot of each supernatant was set aside for DNA purification using a PCR purification kit (Qiagen) and analyzed by agarose gel electrophoresis. […]

B1: protein VII: mature protein VII of human adenovirus type 5 (SEQ ID NO:1), expressed in cells, mostly with C-terminal HA tag (protein)
chain: AKKRSDQHPVRVRGHYRAPWGAHKRGRTGRTTVDDAIDAVVEEARNYTPTPPPVSTVDAAIQTVVRGARRYAKMKRRRRRVARRHRRRPGTAAQRAAAALLNRARRTGRRAAMRAARRLAAGIVTVPPRSRRRAAAAAAAAISAMTQGRRGNVYWVRDSVSGLRVPVRTRPPRN
modifications: C-terminal HA tag; Human adenovirus 5
In the case of B1, the “HMGB1 in BAL fluid” value (LPS induced lung injury) is reported as “significantly less HMGB1”, the “Neutrophils in BAL fluid” value (LPS induced lung injury) is reported as “fewer neutrophils” and the “Relocalization of endogenous HMGB1 in lung slices” value (HMGB1) is reported as “sufficient to relocalize endogenous HMGB1”. The “Chromatin association of HMGB2 (fractionated nuclei)” value (HMGB2) was “Increased chromatin association”.
